Residue numbers refer to the chain shown, from its start.
Target: T1, FtsZ (full length, recombinant) (Streptococcus pneumoniae, UniProt A0A0H2ZNE0 1-419)
T1 sequence (looked up): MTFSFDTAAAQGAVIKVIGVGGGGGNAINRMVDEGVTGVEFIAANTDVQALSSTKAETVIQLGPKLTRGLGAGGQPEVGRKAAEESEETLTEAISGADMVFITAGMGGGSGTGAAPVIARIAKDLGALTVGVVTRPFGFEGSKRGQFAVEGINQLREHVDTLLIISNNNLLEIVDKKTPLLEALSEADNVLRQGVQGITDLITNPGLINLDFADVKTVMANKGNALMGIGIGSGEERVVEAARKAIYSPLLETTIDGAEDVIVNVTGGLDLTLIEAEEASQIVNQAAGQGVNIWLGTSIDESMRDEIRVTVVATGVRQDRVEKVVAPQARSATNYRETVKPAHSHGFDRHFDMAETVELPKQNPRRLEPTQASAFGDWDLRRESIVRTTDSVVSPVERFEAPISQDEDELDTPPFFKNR
Experiment: SPR

## MSKKRRNRHKKEAQEPQFDFDEAKELTVGQAIRKNEEVEAG (domain or fragment, Streptococcus pneumoniae, UniProt Q8DR55 1-41, looked up) [MapZ N-terminal peptide from Met-1 to Gly-41]
  Kd: 20.4 nM

B1: MapZ cytoplasmic domain (domain or fragment, Streptococcus pneumoniae, UniProt Q8DR55 1-158, looked up)
chain: MSKKRRNRHKKEAQEPQFDFDEAKELTVGQAIRKNEEVEAGVLPEDSILDKYVKQHRDEIEADKFATRQYKKEEFVETQSLDDLIQEMREAVEKSEASSEEVPSSEDILLPLPLDDEEQGLDPLLLDDENPTEMTEEVEEEQNLSRLDQEDSEKKSKK
  Kd: 8.76 nM

B2: MapZ-2TE cytoplasmic domain (domain or fragment, Streptococcus pneumoniae, UniProt Q8DR55 1-158, looked up)
chain: B1 chain with T67E, T78E
  binding result: binds

Reference: publication PMC4268495 (Nature, 2014)
